Measurements from the nanobody polyreactivity screen of Harvey et al. (2022).

Experiment: yeast display, Sf9 membrane polyspecificity reagent, FACS + sequencing; frameworks hold sequencing errors
Method in brief: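 In a synthetic yeast display library (Saccharomyces cerevisiae BJ5465), nanobody expression was induced with galactose for 36–48 hours. FACS gates were set low and high (top ~1%) using anti-HA fluorescence for expression and streptavidin fluorescence for binding of the Sf9 membrane reagent. Each polyreactivity label is drawn from the gate of origin.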
For “QVQLVESGGGLVQAGGSLRLSCASSGRTFYPYAMGWYRQAPGKERDLDAAITWSGGSTYYADSVKGRFTISRDYAKITVYLQMNSLKPEDTAVYYCNATYEAYIYYEYDYWGQGTQVTVSS”, the “polyreactivity (PSR sort gate)” value was “low polyreactivity”. In the case of “QVQLVESGGGLVQAGGSLRLSCASSGRTFYRYAMGWYRQAPGKERELVASITRRGGSTYYADSVKGRFTISRDNAKNTVYLQMNSLKPEDTAVYYCAKHSWPLDGGDYWGQGTQVTVSS”, the “polyreactivity (PSR sort gate)” value is reported as “low polyreactivity”. With “QVQLVESGGGLVQAGGSLRLSCASSGRTIDGYAMGWYRQAPGKERELVATITWSGDSTYYADSVKGRFTISRDNAKNTVYLKMNSLKPEDTSVYYCAADSYYAYPYGYGYWGQGTQVTVSS” the “polyreactivity (PSR sort gate)” value was “high polyreactivity”. In the case of “QVQLVESGGGLVQAGGSLRLSCASSGRTLPYNAMGWYRQAPGKERELVAAISKRGSSTYYADSVKGRFTLSRDNAKNTVYLQMNSLKPEDTAVYYCAKGGSFYYWGQGTQVTVSS”, the “polyreactivity (PSR sort gate)” value is reported as “high polyreactivity”. In the case of “QVQLVESGGGLVQAGGSLRLSCASSGRTYNVMGWYRQATGKERELVAAITWRGGSTHYADSVKGRFTISRDNAKNTVYLQMNSLKAEDTAVYYCSADLLYKSTRVDYWGQGTQVTVSS”, the “polyreactivity (PSR sort gate)” value is reported as “low polyreactivity”. In the case of “QVQLVESGGGLVQAGGSLRLSCASSGSIFAGYAMGWYRQAPGKERELVATITSGGSTNYADSVKGRFTISRDNAKNTVYLQMNSLKPEDTAVYYCAADVEVSIPSSYTGGEYDYWGQGTQVTVSS”, the “polyreactivity (PSR sort gate)” value is reported as “low polyreactivity”. With “QVQLVESGGGLVQAGGSLRLSCASSGSIFRRNVMGWYRQAPGKERELVASITGRGGSTYYADSVKGRFTISRDNAKNTVYLQMNSLKPEDTAVYYSNADSLRTYDWYTRTVGYGYWVQGTQVTVSS” the “polyreactivity (PSR sort gate)” value was “high polyreactivity”. With “QVQLVESGGGLVQAGGSLRLSCASSGSIFSHYAMGWYRQAPGKERELVAAISRSGGSTYYADSVKGRFTISRDNAKNTVYLQMNSLKPEDTAVYYCAKEGDSGDWFDYWGQGTQVTVSS” the “polyreactivity (PSR sort gate)” value was “low polyreactivity”. For “QVQLVESGGGLVQAGGSLRLSCASSGSIFTCYTMGWYRQAPGKEMELVAAISQTGGRTYYADSVKVRFTISRDNAKNTVYLQMNSLKAEDTAVYYCAARSKRLAHDYWGQGTQVTVSS”, the “polyreactivity (PSR sort gate)” value was “high polyreactivity”. In the case of “QVQLVESGGGLVQAGGSLRLSCASSGSIFTINAMGWYRQAPGKERELVAAIPYSGGFTYYADSVKGRFTISRDNAKNTVYLQMNSLKPEDTAVYYCAAVRGYPSRITSYVYTYGYWGQGTQVTVSS”, the “polyreactivity (PSR sort gate)” value is reported as “low polyreactivity”. For “QVQLVESGGGLVQAGGSLRLSCASSGSIFTRYAMGWYRQAPGKERELVAAISRRGGSTYYADSVKGRFTISRDNAKNTVYIQMNSLKPEDTAVYYCYPYYIASTFDYWGQGTQVTVSS”, the “polyreactivity (PSR sort gate)” value was “high polyreactivity”. For “QVQLVESGGGLVQAGGSLRLSCASSGSNFGYNAMGWYRQAPGKERELVAAILSSDSRTHYADSVKGRFTISRDNAKNTVYFQRNSLKPEDTAVYYCAAVKRRPGHYLYDYWGQGTQVSVSS”, the “polyreactivity (PSR sort gate)” value was “low polyreactivity”. With “QVQLVESGGGLVQAGGSLRLSCASSGSTFHVNAMGWYRQAPGKERELVARISSTGRTSYADSVKGRFTISRDNAKNTVYLQMNSLKPEDTAVYYCAARYYRVYVSSDYYYWGQGTQVTVSS” the “polyreactivity (PSR sort gate)” value was “high polyreactivity”. For “QVQLVESGGGLVQAGGSLRLSCASSGSTFPYNAMGWYRQAPGKERELVAAITSSGRTNYADSVKGRFTISRDNAKNTVYLQMNSLKPEDTAVYYCAAGRWYAHRVDYWGQGTQVTVSS”, the “polyreactivity (PSR sort gate)” value was “low polyreactivity”. In the case of “QVQLVESGGGLVQAGGSLRLSCASSGSTFTTNALGWYRQAPGKERELVAAISRRGGSTYYADSVKGRFRISRDNAKNTVYLQMNSLKPEDTAVYYCNAVRAEYEFDYWGQGTQVTVSS”, the “polyreactivity (PSR sort gate)” value is reported as “high polyreactivity”. In the case of “QVQLVESGGGLVQAGGSLRLSCASSGSTFWVNVMGWYRQAPGKERELVATITSGGRTNYADSVKGRFTISRDNAKNTVYLQMNCLKPEDTAVYYCAADLKRGYLMDYWGQGTQVTVSS”, the “polyreactivity (PSR sort gate)” value is reported as “low polyreactivity”. For “QVQLVESGGGLVQAGGSLRLSCASSGTFFGYAMGWYRQAPGKERELVAAITSGGSTYYADSVKGRFTISRDNAKNTVYLQMNSLKPEDTAGYYCARVYSRWSYRYDYWGQGTQVTVST”, the “polyreactivity (PSR sort gate)” value was “low polyreactivity”. For “QVQLVESGGGLVQAGGSLRLSCASSGTFRLYAMGWYRQAPGKEREFVAAITSGGRTYADSVKGRFTISRDNAKNTVYLQMNSLKPEDTAVYYCAADAGRILFSGYDYWGQGTQVTVSS”, the “polyreactivity (PSR sort gate)” value was “low polyreactivity”. For “QVQLVESGGGLVQAGGSLRLSCASSGYTIPLYAMVWYRQAPGKERELVADINIGGASTYYADSVKGRFTISRDNAKYTVYLQMNSLKPEDTAVYYCAKEYYDGYFTTFEYDYWGQGTQVTVSS”, the “polyreactivity (PSR sort gate)” value was “low polyreactivity”. In the case of “QVQLVESGGGLVQAGGSLRLSCATSGNIFWRYSIRWYRQAPGKEREFVAGISLRGSSTYYADSVKGRFTISRDNAKNTVYLEMNSLKPEDTAVYYCAVRQPRGSTVFYGGNYWGQGTQVTVSS”, the “polyreactivity (PSR sort gate)” value is reported as “low polyreactivity”. With “QVQLVESGGGLVQAGGSLRLSCATSGRIFHRYAMGWYRQAPGKERELVAGISSSGGSTYADSVKGRFTISRDNAKNTVYLQMNSLKPEDTAVYYCAKYFTDVSRHTYDYWGQGTQVTVSS” the “polyreactivity (PSR sort gate)” value was “high polyreactivity”. With “QVQLVESGGGLVQAGGSLRLSCATSGSIFVFNAMGWYRQAPGKERELVAAIDTSDDITYYADSVKGRFTISRDNAKNTVYLQMNSLKPEDTAVYYCNAETYGLVPYYIYHYEFDYWGQGTQVTVSS” the “polyreactivity (PSR sort gate)” value was “high polyreactivity”. With “QVQLVESGGGLVQAGGSLRLSCAVSGGILYEYAMGSDREAPGKERELVAAITTSGSTYYADSVKGRFTISRDNAKNTVDLLMNSLKPEDTAVYYCAADSDYFYYDLDYWGQGTQVTVSS” the “polyreactivity (PSR sort gate)” value was “low polyreactivity”. In the case of “QVQLVESGGGLVQAGGSLRLSCAVSGRTFYYYAMGWYRQAPGKERELVAAISSSGGSTYYADSVKGRFTISRDNAMNTVYLQLNRLKPEDTAVYYCNAYTTRSYGFDYWGQGTQVTVSS”, the “polyreactivity (PSR sort gate)” value is reported as “high polyreactivity”. In the case of “QVQLVESGGGLVQAGGSLRLSCAYSGRTICSNAMGWYRQAPGKESELVARIDSTYYADSVKGRFTISRDNAKNTVYLQMNSLKPEDTAVYYCAADAWDHWTWFYPTNGMDYWGQGTQVNVSS”, the “polyreactivity (PSR sort gate)” value is reported as “low polyreactivity”. For “QVQLVESGGGLVQAGGSLRLSCDASALTIITNAMGWYRQAPGKERELVAAISGTGGSTYYADSVKGRFTISRDNAKYTVYLQMNSLKPEDTAVYYCAAAPYTFWVGDSWGQGTQVTVSS”, the “polyreactivity (PSR sort gate)” value was “high polyreactivity”. For “QVQLVESGGGLVQAGGSLRLSCDASARTFWRNAMGWYRQAPGKERELVAAISYSGGSTYYADSVKGRFTISRDYAKNTVYLQMNSLKPEDTAVYYCAVVYSTSSLYSGYYWGQGTQVTVSS”, the “polyreactivity (PSR sort gate)” value was “low polyreactivity”. With “QVQLVESGGGLVQAGGSLRLSCDASGFIFNYYVMGWYRQAPGKERELVAAISRSGGSTYYADSVKGRFTISRDNAKNTVYLQKNSLKTEDTAVYYCAAEYGYGKRAYDSWGQGTQVTVSS” the “polyreactivity (PSR sort gate)” value was “high polyreactivity”. In the case of “QVQLVESGGGLVQAGGSLRLSCDASGFIFVVYALGWYRQAPGKERDLVAAITNGGITYYADSVKGRFTISRDNAKNTVYLQMNSLKPEDTAVYYCNAQYTVYDGYVCYYYWGQGTQVTVSS”, the “polyreactivity (PSR sort gate)” value is reported as “low polyreactivity”. For “QVQLVESGGGLVQAGGSLRLSCDASGFTFVSYAMGSYRQAPGKERELVAVISYRAGSTYYADSVKGRFTISRDNAKNTVYLPMYSLKPEDTAVYYCATDRYSRRNDYWGQGTQVTVSS”, the “polyreactivity (PSR sort gate)” value was “high polyreactivity”.
